According to publication PMC4788496 (Chemistry & biology, 2015):

Target: the molecule itself
Assay: SEC

B1: apoNC1 (heme-free DGCR8 construct NC1, a.a. 276-751) (domain or fragment, human, UniProt Q8WYQ5 276-751, looked up)
chain: DGETSVQPMMTKIKTVLKSRGRPPTEPLPDGWIMTFHNSGVPVYLHRESRVVTWSRPYFLGTGSIRKHDPPLSSIPCLHYKKMKDNEEREQSSDLTPSGDVSPVKPLSRSAELEFPLDEPDSMGADPGPPDEKDPLGAEAAPGALGQVKAKVEVCKDESVDLEEFRSYLEKRFDFEQVTVKKFRTWAERRQFNREMKRKQAESERPILPANQKLITLSVQDAPTKKEFVINPNGKSEVCILHEYMQRVLKVRPVYNFFECENPSEPFGASVTIDGVTYGSGTASSKKLAKNKAARATLEILIPDFVKQTSEEKPKDSEELEYFNHISIEDSRVYELTSKAGLLSPYQILHECLKRNHGMGDTSIKFEVVPGKNQKSEYVMACGKHTVRGWCKNKRVGKQLASQKILQLLHPHVKNWGSLLRMYGRESSKMVKQETSDKSVIELQQYAKKNKPNLHILSKLQEEMKRLAEEREETRK
- binding result: binds
